Laboratory results as given in article PMC4086254.
Values joined by “and” are separate entries in the source; they are usually repeats but may differ in a detail not shown here. Equal values may be shown once. Read-outs that look alike come from different tables or passages of the source.

Tests used:
[1] = molecular target: rabbit muscle G-actin (actin monomers; ATP-G-actin or ADP-G-actin) (rabbit) (UniProt P68135); assay: shift of the apparent critical concentration of pyrene-actin
[2] = molecular target: rabbit muscle G-actin (actin monomers; ATP-G-actin or ADP-G-actin) (rabbit) (UniProt P68135); assay: as above; remark: listed apart in the source

Kd [1]	Kd [2]	Substance
1700 nM and 1200 nM	3600 nM and 2900 nM	MBP-CAS-2CΔWH2 (C-terminal half of CAS-2 lacking WH2, residues 275-457, fused to maltose-binding protein) (domain or fragment)
2900 nM and 830 nM		MBP-CAS-2N (N-terminal half of CAS-2, residues 1-207, fused to maltose-binding protein) (domain or fragment)
1700 nM and 2900 nM	1000 nM and 950 nM	MBP-CAS-2C (C-terminal half of CAS-2, residues 208-457, fused to maltose-binding protein) (domain or fragment)
830 nM		MBP-CAS-2 (full-length CAS-2, cyclase-associated protein-2, fused to maltose-binding protein) (natural protein)
